Assay results from paper PMC6442606 (Proceedings of the National Academy of Sciences of the …, 2019).

B1: transformed α2M (α2M*) (natural protein, human, UniProt P01023 24-1474, looked up)
chain: SVSGKPQYMVLVPSLLHTETTEKGCVLLSYLNETVTVSASLESVRGNRSLFTDLEAENDVLHCVAFAVPKSSSNEEVMFLTVQVKGPTQEFKKRTTVMVKNEDSLVFVQTDKSIYKPGQTVKFRVVSMDENFHPLNELIPLVYIQDPKGNRIAQWQSFQLEGGLKQFSFPLSSEPFQGSYKVVVQKKSGGRTEHPFTVEEFVLPKFEVQVTVPKIITILEEEMNVSVCGLYTYGKPVPGHVTVSICRKYSDASDCHGEDSQAFCEKFSGQLNSHGCFYQQVKTKVFQLKRKEYEMKLHTEAQIQEEGTVVELTGRQSSEITRTITKLSFVKVDSHFRQGIPFFGQVRLVDGKGVPIPNKVIFIRGNEANYYSNATTDEHGLVQFSINTTNVMGTSLTVRVNYKDRSPCYGYQWVSEEHEEAHHTAYLVFSPSKSFVHLEPMSHELPCGHTQTVQAHYILNGGTLLGLKKLSFYYLIMAKGGIVRTGTHGLLVKQEDMKGHFSISIPVKSDIAPVARLLIYAVLPTGDVIGDSAKYDVENCLANKVDLSFSPSQSLPASHAHLRVTAAPQSVCALRAVDQSVLLMKPDAELSASSVYNLLPEKDLTGFPGPLNDQDNEDCINRHNVYINGITYTPVSSTNEKDMYSFLEDMGLKAFTNSKIRKPKMCPQLQQYEMHGPEGLRVGFYESDVMGRGHARLVHVEEPHTETVRKYFPETWIWDLVVVNSAGVAEVGVTVPDTITEWKAGAFCLSEDAGLGISSTASLRAFQPFFVELTMPYSVIRGEAFTLKATVLNYLPKCIRVSVQLEASPAFLAVPVEKEQAPHCICANGRQTVSWAVTPKSLGNVNFTVSAEALESQELCGTEVPSVPEHGRKDTVIKPLLVEPEGLEKETTFNSLLCPSGGEVSEELSLKLPPNVVEESARASVSVLGDILGSAMQNTQNLLQMPYGCGEQNMVLFAPNIYVLDYLNETQQLTPEIKSKAIGYLNTGYQRQLNYKHYDGSYSTFGERYGRNQGNTWLTAFVLKTFAQARAYIFIDEAHITQALIWLSQRQKDNGCFRSSGSLLNNAIKGGVEDEVTLSAYITIALLEIPLTVTHPVVRNALFCLESAWKTAQEGDHGSHVYTKALLAYAFALAGNQDKRKEVLKSLNEEAVKKDNSVHWERPQKPKAPVGHFYEPQAPSAEVEMTSYVLLAYLTAQPAPTSEDLTSATNIVKWITKQQNAQGGFSSTQDTVVALHALSKYGAATFTRTGKAAQVTIQSSGTFSSKFQVDNNNRLLLQQVSLPELPGEYSMKVTGEGCVYLQTSLKYNILPEKEEFPFALGVQTLPQTCDEPKAHTSFQISLSVSYTGSRSASNMAIVDVKMVSGFIPLKPTVKMLERSNHVSRTEVSSNHVLIYLDKVSNQTLSLFFTVLQDVPVRDLKPAIVKVYDYYETDEFAIAEYNAPCSKDLGNA
modifications: thioester bond reacted (NH4Cl)
B2: hypochlorite-modified α2M (natural protein, human, UniProt P01023 24-1474, looked up)
chain: B1 chain
modifications: hypochlorite (NaOCl)-modified; residues not stated
B3: pregnancy zone protein (PZP) (natural protein, human, UniProt P20742 26-1482, looked up)
chain: TEPQYMVLVPSLLHTEAPKKGCVLLSHLNETVTVSASLESGRENRSLFTDLVAEKDLFHCVSFTLPRISASSEVAFLSIQIKGPTQDFRKRNTVLVLNTQSLVFVQTDKPMYKPGQTVRFRVVSVDENFRPRNELIPLIYLENPRRNRIAQWQSLKLEAGINQLSFPLSSEPIQGSYRVVVQTESGGRIQHPFTVEEFVLPKFEVKVQVPKIISIMDEKVNITVCGEYTYGKPVPGLATVSLCRKLSRVLNCDKQEVCEEFSQQLNSNGCITQQVHTKMLQITNTGFEMKLRVEARIREEGTDLEVTANRISEITNIVSKLKFVKVDSHFRQGIPFFAQVLLVDGKGVPIPNKLFFISVNDANYYSNATTNEQGLAQFSINTTSISVNKLFVRVFTVHPNLCFHYSWVAEDHQGAQHTANRVFSLSGSYIHLEPVAGTLPCGHTETITAHYTLNRQAMGELSELSFHYLIMAKGVIVRSGTHTLPVESGDMKGSFALSFPVESDVAPIARMFIFAILPDGEVVGDSEKFEIENCLANKVDLSFSPAQSPPASHAHLQVAAAPQSLCALRAVDQSVLLMKPEAELSVSSVYNLLTVKDLTNFPDNVDQQEEEQGHCPRPFFIHNGAIYVPLSSNEADIYSFLKGMGLKVFTNSKIRKPKSCSVIPSVSAGAVGQGYYGAGLGVVERPYVPQLGTYNVIPLNNEQSSGPVPETVRSYFPETWIWELVAVNSSGVAEVGVTVPDTITEWKAGAFCLSEDAGLGISSTASLRAFQPFFVELTMPYSVIRGEVFTLKATVLNYLPKCIRVSVQLKASPAFLASQNTKGEESYCICGNERQTLSWTVTPKTLGNVNFSVSAEAMQSLELCGNEVVEVPEIKRKDTVIKTLLVEAEGIEQEKTFSSMTCASGANVSEQLSLKLPSNVVKESARASFSVLGDILGSAMQNIQNLLQMPYGCGEQNMVLFAPNIYVLNYLNETQQLTQEIKAKAVGYLITGYQRQLNYKHQDGSYSTFGERYGRNQGNTWLTAFVLKTFAQARSYIFIDEAHITQSLTWLSQMQKDNGCFRSSGSLLNNAIKGGVEDEATLSAYVTIALLEIPLPVTNPIVRNALFCLESAWNVAKEGTHGSHVYTKALLAYAFSLLGKQNQNREILNSLDKEAVKEDNLVHWERPQRPKAPVGHLYQTQAPSAEVEMTSYVLLAYLTAQPAPTSGDLTSATNIVKWIMKQQNAQGGFSSTQDTVVALHALSRYGAATFTRTEKTAQVTVQDSQTFSTNFQVDNNNLLLLQQISLPELPGEYVITVTGERCVYLQTSMKYNILPEKEDSPFALKVQTVPQTCDGHKAHTSFQISLTISYTGNRPASNMVIVDVKMVSGFIPLKPTVKMLERSSSVSRTEVSNNHVLIYVEQVTNQTLSFSFMVLQDIPVGDLKPAIVKVYDYYETDESVVAEYIAPCSTDTEHGNV

Columns and labels:
native gel or EMSA = target: the molecule itself; test: native gel or EMSA
[1] = target: Hilyte Fluor 488-labeled Aβ1-42 (UniProt P05067 672-713, Hilyte Fluor 488 label (position not given)); test: native gel or EMSA
biotinylated Aβ1-42 = biotinylated Aβ1-42 (UniProt P05067 672-713, biotin (position not given)); test: pull-down
Chain of biotinylated Aβ1-42 (P05067 672-713): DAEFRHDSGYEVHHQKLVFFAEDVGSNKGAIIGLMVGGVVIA

Chain of Hilyte Fluor 488-labeled Aβ1-42 (P05067 672-713): as above

Binder	stoichiometry N (native gel or EMSA)	binding result [1]	binding result (biotinylated Aβ1-42)
B1	4	–	–
B2	2	–	–
B3	2	binds	binds
